Measurements reported in patent US20240425588A1 (APEXIMMUNE THERAPEUTICS, published 2024).
Positions count from the first letter of the chain named.

T1: human TIGIT expressed on the cell surface of Jurkat cells (human, UniProt Q495A1 22-244)
T1 construct: also called Jurkat-hTIGIT; cell surface TIGIT
T1 sequence: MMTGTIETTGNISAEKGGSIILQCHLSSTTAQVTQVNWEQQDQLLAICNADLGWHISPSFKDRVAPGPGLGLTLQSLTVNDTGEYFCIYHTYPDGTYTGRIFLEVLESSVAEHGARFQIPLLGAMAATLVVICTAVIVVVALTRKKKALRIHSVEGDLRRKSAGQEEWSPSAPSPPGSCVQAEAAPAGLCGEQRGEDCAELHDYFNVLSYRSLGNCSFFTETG

B1: 45.75D4.D3.D9 (antibody, V domains shown)
VH: EVQLQQSGPELVKPGASMKMSCKASGYKFTSYVMHWVKQKPGQGLEWIGYIDPYNDGSKYNEKFKGKATLTSDKSSSIAYMELSSLTSEDSAVFYCARGGSRGWYFDVWGAGTTVTVSS
VL: DIQMTQSPASLSASVGETVTFTCRTNENIYSYLTWYQQKQGKSPQVLVYNAKTLAEGVPSRFSGSGSGTQFSLKINSLQPEDFGSYFCQHHFGNPLTFGAGTKLELK
notes: Mouse hybridoma antibody, tested as supernatant or protein G purified
B2: 45.62B12.G5 (antibody, V domains shown)
VH: DVQLQESGPGLVKPSQSLSLTCTVTGYSITSAYDWHWIRHFPGNILEWMGYIRNSGSTNYNPLLKSRISITHDTSQNHFSLKLNSVTTEDTATYYCARGLFWYFDVWGAGTTVTVSS
VL: B1 VL with F21I, T25A, N26S, S31N, V46L, F87Y, F92Y
notes: as for B1
B3: 45.86C5.C3 (antibody, V domains shown)
VH: DVQLQESGPGLVKPSQSLSLTCTVTGYSITSGYDWHWIRHFPGNILEWMGYISDSGNTIYSPSLKSRISITHDTSKNHFFLKLNSVTSEDTATYYCARGSFWYFDVWGAGTTVTVSS
VL: B1 VL with F21I, T25V, N26S, T34A, V46L, A51T, F87Y, F92Y
notes: as for B1
B4: 45.87B8.H2.H5 (antibody, V domains shown)
VH: B3 VH with G32A, H40L, N44H, D54Y, S61N, S88T
VL: DIQMTQSPASLSASVGETVTITCRVSEHIYNYLAWYQQKQGKSPQLLVYNAKTLAEGVPSRFSGSGSGTQFSLKINSLQPEDFGTYYCQHNYGNPLTFGAGTKVELK
notes: as for B1
B5: 45.32A8.G6 (antibody, V domains shown)
VH: QVQLKESGPGLVAPSHSLSITCTVSGFSLTNYNINWIRQPPGKGLEWLGIIWTGGGTNYNSAFMSTLSINKDNSKSQVFLKMNRMQTDDTTIYYCVRETYFNNYGFYFDYWGQSTTLTVSS
VL: EIVLTQSPTTMAASPGEKITITCSASSSISSNYLHWYQQKPGFSPKLLIYRTSNLASGVPARFSGSGSGTSYSLTIGTMEAEDVATYYCQQGSSIPRTFGGGTKLEIK
notes: as for B1
B6: 45.50C2.A6 (antibody, V domains shown)
VH: B5 VH with H16Q, I50V, T66R, N70S, M85L, T91A, T99A, N102S, S114G
VL: B5 VL
notes: as for B1
B7: 45.3D7.F7 (antibody, V domains shown)
VH: QVQLQQSGPELVKPGASVKISCKASGYGFSGYWMNWVKQGPGKGLEWIGRIFPGDGDTDYNGKLKDKATLTAYKSSSTAYLQLSSLTSEDSAVYFCARWLGGFTSWGQGTLVTVSA
VL: QIVLSQSPAILSASPGEKVTMTCRASASVSYMHWYQQKPGSSPKPWIYATSNLASGVPARFSGSGSGTSYSLTISRVEAEDAATYYCQQWSSDPPTFGAGTKLELK
notes: as for B1
B8: 45.32B10.A4 (antibody, V domains shown)
VH: EVQLVESGGVLVKPGGSLKLSCAASGFTFSNYVMSWVRQTPEKRLEWVATITSGGTYTYYPDSVKGRFTISRDNAKNILYLQMSSLRSEDTALYYCTRWLLSLYAMDYWGQGTSVTVSS
VL: DIQMTQTTSSLSASLGDRVTITCRASQDISNFLNWYQQKPDGTVKLLIYYTSRLHSGVPSRFSGSGSGTDYSLTISNLEQEDIATYFCQQGKTYPYTFGGGTKVEIK
notes: as for B1
B9: 45.56F7.A1 (antibody, V domains shown)
VH: B8 VH with V10A, V33A, T52S, T56S, I78T, T97A
VL: B8 VL with I2F, T22S, A25S, F32Y, Y50R, Q80R, Y94P, V104L
notes: as for B1
B10: hu32B10 (45.32B10.A4) (antibody, V domains shown)
VH: EVQLLESGGGLVQPGGSLRLSCAASGFTFSNYVMSWVRQAPGKGLEWVSTITSGGTYTYYPDSVKGRFTISRDNSKNTLYLQMNSLRAEDTAVYYCTRWLLSLYAMDYWGQGTTVTVSS
VL: DIQMTQSPSSLSASVGDRVTITCRASQDISNFLNWYQQKPGKAVKLLLYYTSRLHSGVPSRFSGSGSGTDYTLTISSLQPEDFATYFCQQGKTYPYTFGGGTKVEIK
notes: Humanized antibody; also called humanized 45.32B10.A4

molecular target: T1, human TIGIT expressed on the cell …; assay: flow cytometry on Jurkat-hTIGIT cells
Procedure: Supernatants from ELISA-positive clones or purified antibodies were further tested for their ability to bind to human TIGIT or rhesus TIGIT expressed on the cell surface of Jurkat cells (Jurkat-hTIGIT or Jurkat-rhesTIGIT) by flow cytometry. Jurkat-hTIGIT or Jurkat-rhesTIGIT cells were harvested and 1×10⁵ cells per well plated in 96-well U-bottom plates and the supernatant removed. 50 μl of hybridoma supernatant or purified antibody at the specified dilution or concentration was added to each well and incubated at 4° C. for 30 minutes. Assay plates were washed 2 times with PBS and antibody binding detected using a PE-labeled goat anti-mouse antibody (Biolegend) at 1:400 dilution in PBS for 30 minutes at 4° C. Plates were washed 2 times and analyzed on a BD LSRFortessa X-20 flow cytometer (Becton Dickinson).

Binding result, binds:
B1
B2
B3
B4
B5
B6
B7
B8
B9
B10
